Source: the supplement of paper PMC7125110
± gives the standard error. Fewer inactive variants are shown than the library holds.

B1: glmS ribozyme (parent)
chain: AUAAAAGCGCCAGAACUACAGAAAUGUAGUUGACGAGGAGGAGGUUUAUCGAAUUUUCGGCGGAUGCCUCCAAA

Variants of: B1
Assay: self-cleavage kobs at 640 uM GlcN6P; higher = faster cleavage; RNA array
Conditions: with glucosamine-6-phosphate
How it was run: (§1)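 Over ~14 h at 37 °C, tiles were imaged as glucosamine-6-phosphate (40 μM to 10 mM) in HEPES/KCl/Mg(OAc)2 buffer flowed across sequenced MiSeq chips. The chips carried barcoded ribozyme variants transcribed in situ by E. coli RNA polymerase and tracked with a hybridised Cy3 probe. After normalisation to baseline and to non-cleaving reference variants, one- or two-exponential decay fits of per-tile medians gave kobs. kcat and KM followed from weighted Michaelis–Menten fits across concentrations.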

| Variant | self-cleavage kobs at 640 uM GlcN6P |
| --- | --- |
| C61G C70G C71G | 0.000223 ± 8.8e-05 s⁻¹ |
| G44A U46C U49C U54G C67G | < 1e-05 s⁻¹ |
| A52C U56C C67U | < 1e-05 s⁻¹ |
| G51U G63A C68G | 9.2e-05 ± 3e-05 s⁻¹ |
| C61U G66C | < 1e-05 s⁻¹ |
| U55G C67A C68G | 8.64e-05 ± 2.7e-05 s⁻¹ |
| U55G G62A G63U | < 1e-05 s⁻¹ |
| U46G A53G G66U | 7.95e-05 ± 2e-05 s⁻¹ |
| U47G G63U C68G | 6.95e-05 ± 3.1e-05 s⁻¹ |
| U46A C68G C71G | 0.00075 ± 0.00031 s⁻¹ |
| G59U G62A | < 1e-05 s⁻¹ |
| A52C U57G U69G | 8.06e-05 ± 2.8e-05 s⁻¹ |
| U57C C61U G63A | < 1e-05 s⁻¹ |
| U49G C50G G63C U69C | 0.00018 ± 4.2e-05 s⁻¹ |
| U47A C58U U65C | < 1e-05 s⁻¹ |
| A53U G62U | < 1e-05 s⁻¹ |
| U47A G63A | < 1e-05 s⁻¹ |

| Variant | self-cleavage kobs at 640 uM GlcN6P |
| --- | --- |
| A48U U55G C71A | 2.8e-05 ± 1.3e-05 s⁻¹ |
| C50G A52U | < 1e-05 s⁻¹ |
| U55A C67A C68U | 8.42e-05 ± 2.6e-05 s⁻¹ |
| G51U U56A G63U | < 1e-05 s⁻¹ |
| G44A U47G | 5.51e-05 ± 2.3e-05 s⁻¹ |
| U54G G66C | 0.000405 ± 6.3e-05 s⁻¹ |
| G44A U45G U49A C50G | < 1e-05 s⁻¹ |
| A52G C61G U69A | 0.000109 ± 4.4e-05 s⁻¹ |
| G60U G66C C70U | < 1e-05 s⁻¹ |
| C58U A64C C71A | < 1e-05 s⁻¹ |
| U45G U49C | < 1e-05 s⁻¹ |
| C67A U69A | 0.000234 ± 4.1e-05 s⁻¹ |
| A48G A52C U57G | < 1e-05 s⁻¹ |
| A53G G60A C61G | < 1e-05 s⁻¹ |
| U45C A53U C67G | 0.00389 ± 0.0016 s⁻¹ |
| U55G U65C C70U | 0.00017 ± 3.7e-05 s⁻¹ |

Variants of: B1
Assay: self-cleavage kobs at 2500 uM GlcN6P; higher = faster cleavage; RNA array
Conditions: with glucosamine-6-phosphate
How it was run: as §1

| Variant | self-cleavage kobs at 2500 uM GlcN6P |
| --- | --- |
| C61G C70G C71G | 8.65e-05 ± 2.4e-05 s⁻¹ |
| A6U U47A U57C | < 1e-05 s⁻¹ |
| A6G G9C C70G | < 1e-05 s⁻¹ |
| A6C A14G G35A U57A G66C C68U | < 1e-05 s⁻¹ |
| A6G A42G C67U C70U | < 1e-05 s⁻¹ |
| G7U C11U G51C | < 1e-05 s⁻¹ |
| C8A C16U A33U C68U | < 1e-05 s⁻¹ |
| A6C A12G A15G | < 1e-05 s⁻¹ |
| G7U C8U G41C C70G | < 1e-05 s⁻¹ |
| G44A U46C U49C U54G C67G | < 1e-05 s⁻¹ |
| A6C A15G U30C | 2.76e-05 ± 1.3e-05 s⁻¹ |
| C61U G66C | < 1e-05 s⁻¹ |
| U55G C67A C68G | 7.14e-05 ± 1.6e-05 s⁻¹ |
| A6C A52U G60A | < 1e-05 s⁻¹ |
| G7A A39C U54G U57A C58U G66U | < 1e-05 s⁻¹ |
| U46G A53G G66U | 0.000148 ± 5.2e-05 s⁻¹ |
| A6U A14U A33G C61U | < 1e-05 s⁻¹ |
| C8A C16U A36C A42U | < 1e-05 s⁻¹ |
| G7A A14C U30A | < 1e-05 s⁻¹ |
| G7U U55A U56A | < 1e-05 s⁻¹ |
| C8A C10U G35A G38A C68U | 4.94e-05 ± 1.7e-05 s⁻¹ |
| A6U U47A A53G G59U | < 1e-05 s⁻¹ |
| G7A C8A U56G | < 1e-05 s⁻¹ |
| A6G C11G A33U G59C | < 1e-05 s⁻¹ |
| A6G C61A C71U | < 1e-05 s⁻¹ |
| A6G G37A G66U C70U | < 1e-05 s⁻¹ |

| Variant | self-cleavage kobs at 2500 uM GlcN6P |
| --- | --- |
| A6U G7A G60U G62U U65G | < 1e-05 s⁻¹ |
| U57C C61U G63A | < 1e-05 s⁻¹ |
| A6U U31G G41U | < 1e-05 s⁻¹ |
| A53U G62U | < 1e-05 s⁻¹ |
| A6C G9U C70A | < 1e-05 s⁻¹ |
| G7U C16U A33U | < 1e-05 s⁻¹ |
| G7C G9A A14U C50A | < 1e-05 s⁻¹ |
| A6U G9A A42C | < 1e-05 s⁻¹ |
| A6G C16U G29C | 6.69e-05 ± 2e-05 s⁻¹ |
| G7U G35U U54C G60A C67G C68A | 5.54e-05 ± 9.5e-06 s⁻¹ |
| A6C U55G C71U | 6.13e-05 ± 2e-05 s⁻¹ |
| U55A C67A C68U | 0.000218 ± 4e-05 s⁻¹ |
| U2C A53C | 0.00726 ± 0.0019 s⁻¹ |
| G51U U56A G63U | < 1e-05 s⁻¹ |
| G44A U47G | 0.00011 ± 3.2e-05 s⁻¹ |
| G44A U45G U49A C50G | < 1e-05 s⁻¹ |
| G7U U31C G32C G35C A36C C71U | < 1e-05 s⁻¹ |
| A52G C61G U69A | 5.25e-05 ± 2.2e-05 s⁻¹ |
| G7C C11U C34G U49G | < 1e-05 s⁻¹ |
| C8A A15G G32U G44U C67A | < 1e-05 s⁻¹ |
| C67A U69A | 0.000247 ± 5.8e-05 s⁻¹ |
| A6G G35U G51U C58U | < 1e-05 s⁻¹ |
| G7U U46G A48U | < 1e-05 s⁻¹ |
| G7U U31C G43A | < 1e-05 s⁻¹ |
| U55G U65C C70U | 0.000458 ± 0.00012 s⁻¹ |
| A6U C50A G51U | < 1e-05 s⁻¹ |

Variants of: B1
Assay: self-cleavage kobs at 10000 uM GlcN6P; higher = faster cleavage; RNA array
Conditions: with glucosamine-6-phosphate
How it was run: as §1

| Variant | self-cleavage kobs at 10000 uM GlcN6P |
| --- | --- |
| U55G G62A G63U | < 1e-05 s⁻¹ |
| G59U G62A | < 1e-05 s⁻¹ |
| U57C C61U G63A | < 1e-05 s⁻¹ |
| A53U G62U | < 1e-05 s⁻¹ |
| A6C G9U C70A | < 1e-05 s⁻¹ |
| C50G A52U | < 1e-05 s⁻¹ |
| A6G C16U G29C | 6.83e-05 ± 1.6e-05 s⁻¹ |
| U55A C67A C68U | 0.000108 ± 2.8e-05 s⁻¹ |
| G44A U47G | 0.000111 ± 2.2e-05 s⁻¹ |
| U54G G66C | 0.00079 ± 0.00012 s⁻¹ |
| U45G U49C | < 1e-05 s⁻¹ |
| C8A A15G G32U G44U C67A | < 1e-05 s⁻¹ |
